From US5932432 come the findings set out here.

The target in assay [1] is yeast RAS1 protein with the carboxy-terminal sequence CAIL (yeast) (UniProt P01119).
In assay [2] the target is yeast RAS1 protein with the carboxy-terminal sequence CAIM (yeast) (UniProt P01119).

For the substance “farnesyl:protein transferase (FTase) present in a tobacco protein extract (enzyme)”, the lowest protein concentration detected by radiolabeling protein blots with [3H]FPP (in vitro farnesylation, fluorography) in assay [1] is under 12; in assay [2] it was 0.12 mmol m^-2.
